The assay deals with T1, 人EGFR (human epidermal growth factor receptor) (human, UniProt P00533 25-1210).
T1 construct: whole, on cells; The target is on tumour cell lines that naturally express EGFR; No recombinant EGFR was used; also called 表皮生长因子受体; EGFR分子
The assay can be described thus: flow cytometry on MAD-MB-231 cells highly expressing EGFR; 293F supernatant (~20ug antibody), FITC donkey anti-human IgG.

B1: CET06 (antibody, V domains shown)
VH: QVQLTQSGPGLVKPSETLSQTCTVSGFSLTNYGVHWVRQSPGKGLEWLGVIWSGGNTDYNTPFTSRLTISVDTSKNQVSLKLSSVTSNDTAVYYCARALTYYDYEFAYWGQGTLVTVSA
VL: DISLTQSPVFLSVTPGEKVESECRASQSIGTNIHWYQQKPDQSPKLLIKYASESISGVPSRFSGSGSGTDFTLTINSVESEDIADYYCQQNNNWPTTFGAGTKLELKR
notes: the summary and claim 2 give the reverse; also called 抗人EGFR嵌合抗体CET06
Take B1: the binding result is “binds”.

The record behind these values is patent CN112300278A (UNIV SHANGHAI JIAOTONG, dated 2021).
